T1: G-protein–coupled receptor kinase–interacting protein-1 (human (endogenous in HUVEC), UniProt Q9Y2X7 1-761)
T1 sequence (looked up): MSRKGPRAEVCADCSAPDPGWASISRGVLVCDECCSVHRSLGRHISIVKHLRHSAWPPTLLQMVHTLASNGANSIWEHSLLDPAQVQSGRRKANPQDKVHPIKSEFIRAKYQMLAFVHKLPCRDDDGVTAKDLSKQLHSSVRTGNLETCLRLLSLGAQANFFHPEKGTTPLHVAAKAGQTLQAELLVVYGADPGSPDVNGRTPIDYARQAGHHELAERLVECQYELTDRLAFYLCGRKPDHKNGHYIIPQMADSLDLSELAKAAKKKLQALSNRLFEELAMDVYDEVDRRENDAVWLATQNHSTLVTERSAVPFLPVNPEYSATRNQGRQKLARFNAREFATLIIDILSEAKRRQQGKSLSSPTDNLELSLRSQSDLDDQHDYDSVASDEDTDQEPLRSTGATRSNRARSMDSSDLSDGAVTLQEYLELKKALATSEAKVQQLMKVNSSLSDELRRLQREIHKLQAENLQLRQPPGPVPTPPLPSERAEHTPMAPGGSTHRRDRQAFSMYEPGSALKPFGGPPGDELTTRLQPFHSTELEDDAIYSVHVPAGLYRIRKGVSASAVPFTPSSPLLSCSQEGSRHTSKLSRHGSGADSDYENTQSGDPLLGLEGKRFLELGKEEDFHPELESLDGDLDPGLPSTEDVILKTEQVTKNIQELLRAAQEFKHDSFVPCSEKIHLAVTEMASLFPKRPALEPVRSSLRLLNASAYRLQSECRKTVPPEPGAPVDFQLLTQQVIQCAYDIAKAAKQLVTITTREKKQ


Target: T1, G-protein–coupled receptor …
Assay: co-IP

Binder | fold increase of association on VEGF (vs unstimulated) | fold increase of its level in the GIT1–cortactin complex on VEGF
cortactin (natural protein, human (endogenous in HUVEC), UniProt Q14247 1-550, looked up) MWKASAGHAVSIAQDDAGADDWETDPDFVNDVSEKEQRWGAKTVQGSGHQEHINIHKLRENVFQEHQTLKEKELETGPKASHGYGGKFGVEQDRMDKSAVGHEYQSKLSKHCSQVDSVRGFGGKFGVQMDRVDQSAVGFEYQGKTEKHASQKDYSSGFGGKYGVQADRVDKSAVGFDYQGKTEKHESQRDYSKGFGGKYGIDKDKVDKSAVGFEYQGKTEKHESQKDYVKGFGGKFGVQTDRQDKCALGWDHQEKLQLHESQKDYKTGFGGKFGVQSERQDSAAVGFDYKEKLAKHESQQDYSKGFGGKYGVQKDRMDKNASTFEDVTQVSSAYQKTVPVEAVTSKTSNIRANFENLAKEKEQEDRRKAEAERAQRMAKERQEQEEARRKLEEQARAKTQTPPVSPAPQPTEERLPSSPVYEDAASFKAELSYRGPVSGTEPEPVYSMEAADYREASSQQGLAYATEAVYESAEAPGHYPAEDSTYDEYENDLGITAVALYDYQAAGDDEISFDPDDIITNIEMIDDGWWRGVCKGRYGLFPANYVELRQ | 6 fold | 
phosphorylated S405-cortactin (natural protein, human (endogenous in HUVEC), UniProt Q14247 1-550, looked up, phosphoserine at 405) MWKASAGHAVSIAQDDAGADDWETDPDFVNDVSEKEQRWGAKTVQGSGHQEHINIHKLRENVFQEHQTLKEKELETGPKASHGYGGKFGVEQDRMDKSAVGHEYQSKLSKHCSQVDSVRGFGGKFGVQMDRVDQSAVGFEYQGKTEKHASQKDYSSGFGGKYGVQADRVDKSAVGFDYQGKTEKHESQRDYSKGFGGKYGIDKDKVDKSAVGFEYQGKTEKHESQKDYVKGFGGKFGVQTDRQDKCALGWDHQEKLQLHESQKDYKTGFGGKFGVQSERQDSAAVGFDYKEKLAKHESQQDYSKGFGGKYGVQKDRMDKNASTFEDVTQVSSAYQKTVPVEAVTSKTSNIRANFENLAKEKEQEDRRKAEAERAQRMAKERQEQEEARRKLEEQARAKTQTPPVSPAPQPTEERLPSSPVYEDAASFKAELSYRGPVSGTEPEPVYSMEAADYREASSQQGLAYATEAVYESAEAPGHYPAEDSTYDEYENDLGITAVALYDYQAAGDDEISFDPDDIITNIEMIDDGWWRGVCKGRYGLFPANYVELRQ |  | 4 fold
